A word on the Kd: it is a measure of binding affinity in units of concentration. Broadly, the koff is the first-order rate constant of dissociation. By kon is commonly meant the rate constant with which the complex forms.

The target of test [1] is T1, extracellular domain (ECD) of human αKlotho, amino acids E34-S981 with C-terminal 6-His tag (R&D Systems … (human, UniProt Q9UEF7 34-981)).
T1 construct: range 34-981; also called αKlotho (aa34-981); target antigen
T1 sequence: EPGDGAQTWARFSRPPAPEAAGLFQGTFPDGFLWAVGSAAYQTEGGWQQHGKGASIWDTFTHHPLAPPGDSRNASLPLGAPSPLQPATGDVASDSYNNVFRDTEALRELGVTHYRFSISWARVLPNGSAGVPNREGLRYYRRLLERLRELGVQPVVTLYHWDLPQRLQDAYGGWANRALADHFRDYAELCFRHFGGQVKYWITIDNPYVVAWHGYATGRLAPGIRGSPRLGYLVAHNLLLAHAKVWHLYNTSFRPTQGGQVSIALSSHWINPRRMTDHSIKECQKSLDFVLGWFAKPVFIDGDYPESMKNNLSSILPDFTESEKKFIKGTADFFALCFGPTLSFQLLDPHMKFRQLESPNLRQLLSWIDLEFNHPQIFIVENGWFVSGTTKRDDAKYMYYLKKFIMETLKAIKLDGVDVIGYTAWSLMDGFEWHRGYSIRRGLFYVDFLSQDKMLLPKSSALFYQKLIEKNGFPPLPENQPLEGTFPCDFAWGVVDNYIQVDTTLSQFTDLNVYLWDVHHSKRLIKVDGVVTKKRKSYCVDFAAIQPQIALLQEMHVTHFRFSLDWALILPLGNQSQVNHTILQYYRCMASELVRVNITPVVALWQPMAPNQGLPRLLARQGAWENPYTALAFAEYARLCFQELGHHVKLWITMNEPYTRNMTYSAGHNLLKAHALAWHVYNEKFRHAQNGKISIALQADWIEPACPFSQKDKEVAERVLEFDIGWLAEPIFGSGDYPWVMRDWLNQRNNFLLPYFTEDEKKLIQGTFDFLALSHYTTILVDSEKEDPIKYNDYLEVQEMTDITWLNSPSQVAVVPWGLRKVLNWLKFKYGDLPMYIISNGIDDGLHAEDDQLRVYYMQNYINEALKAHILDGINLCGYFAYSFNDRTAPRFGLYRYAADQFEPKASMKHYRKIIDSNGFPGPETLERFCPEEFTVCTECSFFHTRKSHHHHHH
Nature of the test: SPR, Fab captured by anti-H+L antibody, αKlotho injected. How it is done: (§1) Affinity estimates for each of the antibodies were determined by surface plasmon resonance (SPR). Fabs were immobilized using an anti-H+L antibody and serial dilutions of αKlotho were injected.
A general note: Surface plasmon resonance follows binding to a sensor surface in real time, without labels.

Test [2] has as its target T1, extracellular domain (ECD) of human …. The experiment in a line: SPR, Fab captured by anti-H+L IgG, αKlotho injected at 50 to 6.25 ug/ml, Langmuir fit. As for the experimental part: as §1
For test [3] the target is unchanged. The experiment in a line: SPR, Fab captured by anti-H+L IgG, αKlotho injected at 50 to 6.25 ug/ml, Langmuir fit [continued]. How it is done: as §1
Test [4] has as its target T2, soluble human αKlotho (recombinant) (human, UniProt Q9UEF7 34-981).
T2 construct: also called Hu aKL; recombinant human αKlotho
T2 sequence (looked up): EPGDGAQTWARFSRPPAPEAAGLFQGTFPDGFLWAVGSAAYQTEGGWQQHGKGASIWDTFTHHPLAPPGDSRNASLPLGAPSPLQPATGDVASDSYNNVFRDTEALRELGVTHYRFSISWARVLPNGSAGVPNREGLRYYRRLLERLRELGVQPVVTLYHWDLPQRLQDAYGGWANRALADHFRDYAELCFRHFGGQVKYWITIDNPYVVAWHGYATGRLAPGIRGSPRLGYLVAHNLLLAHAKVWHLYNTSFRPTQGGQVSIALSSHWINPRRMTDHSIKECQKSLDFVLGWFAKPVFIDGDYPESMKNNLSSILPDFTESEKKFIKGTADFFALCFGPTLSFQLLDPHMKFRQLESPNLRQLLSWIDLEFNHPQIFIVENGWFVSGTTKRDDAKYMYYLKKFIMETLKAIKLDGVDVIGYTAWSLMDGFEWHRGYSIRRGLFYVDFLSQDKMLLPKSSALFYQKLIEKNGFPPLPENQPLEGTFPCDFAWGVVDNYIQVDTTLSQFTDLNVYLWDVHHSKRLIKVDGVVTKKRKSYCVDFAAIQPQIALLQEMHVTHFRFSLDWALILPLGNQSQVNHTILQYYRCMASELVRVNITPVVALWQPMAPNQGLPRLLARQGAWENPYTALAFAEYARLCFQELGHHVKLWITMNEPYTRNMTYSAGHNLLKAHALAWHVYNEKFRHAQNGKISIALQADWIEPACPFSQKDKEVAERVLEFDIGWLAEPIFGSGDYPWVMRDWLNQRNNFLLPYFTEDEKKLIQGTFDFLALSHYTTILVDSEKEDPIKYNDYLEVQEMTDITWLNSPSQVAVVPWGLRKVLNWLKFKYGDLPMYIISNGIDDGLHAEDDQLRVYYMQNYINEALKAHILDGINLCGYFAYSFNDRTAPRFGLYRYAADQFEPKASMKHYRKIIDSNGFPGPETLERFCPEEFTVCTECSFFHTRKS
Nature of the test: SPR (ProteOn XPR36), Fab captured by anti-IgG(H+L), human αKlotho injected in serial dilutions, Langmuir fit. As for the experimental part:
(§2) Estimated affinities against human and mouse antigen for select αKlotho Fabs were obtained by surface plasmon resonance on a ProteOn XPR36 (FIG. 17). Fabs were captured using an anti-IgG(H+L) antibody and serial dilutions of αKlotho were injected. Binding curves were fitted to the Langmuir model. (A) Determined Kon, Koff and KD values. (B) and (C) Binding curves for human and mouse antigen respectively.

Test [5] concerns the target T3, mouse αKlotho (mouse, UniProt O35082 35-982).
T3 construct: also called Mu aKL
T3 sequence (looked up): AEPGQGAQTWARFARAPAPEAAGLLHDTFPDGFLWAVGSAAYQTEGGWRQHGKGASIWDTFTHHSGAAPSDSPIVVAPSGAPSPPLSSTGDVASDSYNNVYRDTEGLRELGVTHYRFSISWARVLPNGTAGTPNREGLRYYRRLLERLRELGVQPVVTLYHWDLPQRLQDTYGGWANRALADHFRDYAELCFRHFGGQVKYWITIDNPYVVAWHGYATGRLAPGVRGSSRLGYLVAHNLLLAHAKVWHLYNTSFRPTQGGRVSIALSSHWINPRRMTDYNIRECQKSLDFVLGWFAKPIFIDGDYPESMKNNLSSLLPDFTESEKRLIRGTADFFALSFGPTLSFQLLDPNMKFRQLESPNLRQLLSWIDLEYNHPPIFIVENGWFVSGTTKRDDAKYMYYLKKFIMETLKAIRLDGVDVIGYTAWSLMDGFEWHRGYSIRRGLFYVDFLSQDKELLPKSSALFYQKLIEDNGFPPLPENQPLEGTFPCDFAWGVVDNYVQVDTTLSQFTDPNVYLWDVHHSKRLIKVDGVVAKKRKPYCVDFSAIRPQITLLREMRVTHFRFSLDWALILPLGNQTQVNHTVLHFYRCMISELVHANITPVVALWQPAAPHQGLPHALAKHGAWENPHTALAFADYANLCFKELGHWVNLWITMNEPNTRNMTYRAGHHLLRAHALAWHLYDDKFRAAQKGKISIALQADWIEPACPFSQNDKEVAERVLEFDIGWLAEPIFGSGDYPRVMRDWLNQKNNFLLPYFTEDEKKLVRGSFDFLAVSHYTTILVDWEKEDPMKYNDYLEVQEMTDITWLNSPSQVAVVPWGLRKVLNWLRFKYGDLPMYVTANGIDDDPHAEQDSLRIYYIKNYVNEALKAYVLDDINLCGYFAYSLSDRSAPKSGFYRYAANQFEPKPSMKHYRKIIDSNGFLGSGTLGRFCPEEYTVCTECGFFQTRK
Nature of the test: SPR (ProteOn XPR36), Fab captured by anti-IgG(H+L), mouse αKlotho injected in serial dilutions, Langmuir fit. How it is done: as §2

The target in test [6] is T2, soluble human αKlotho (recombinant). Nature of the test: SPR (ProteOn XPR36), Fab captured by anti-IgG(H+L), human αKlotho injected in serial dilutions, Langmuir fit [continued) B.]. How it is done:
as §2

The target of test [7] is T3, mouse αKlotho. Nature of the test: SPR (ProteOn XPR36), Fab captured by anti-IgG(H+L), mouse αKlotho injected in serial dilutions, Langmuir fit [continued) C.]. As for the experimental part:
as §2

B1: anti-αKlotho Fab clone 4805 (Fab, V domains shown)
VH: EVQLVESGGGLVQPGGSLRLSCAASGFNLSYYSMHWVRQAPGKGLEWVASISSYYGSTYYADSVKGRFTISADTSKNTAYLQMNSLRAEDTAVYYCARGGGYYSGPYAGFDYWGQGTLVTVSS
VL: DIQMTQSPSSLSASVGDRVTITCRASQSVSSAVAWYQQKPGKAPKLLIYSASSLYSGVPSRFSGSRSGTDFTLTISSLQPEDFATYYCQQSSGWYHFLFTFGQGTKVEIKR
notes: Fab (also as Fab-phage); FLAG tag on light chain; also called sb174
In test [1], B1 yielded a Kd of 0.24 nM. In test [2], this molecule displayed a Kd of 0.117 nM, a koff of 0.000183 s⁻¹ and a kon of 1.57e+06 M⁻¹ s⁻¹.

B2: anti-αKlotho Fab clone 4804 (Fab, V domains shown)
VH: EVQLVESGGGLVQPGGSLRLSCAASGFNLYSYSIHWVRQAPGKGLEWVAYISSSSGSTYYADSVKGRFTISADTSKNTAYLQMNSLRAEDTAVYYCARGWGGGYWFYPVYGIDYWGQGTLVTVSS
VL: DIQMTQSPSSLSASVGDRVTITCRASQSVSSAVAWYQQKPGKAPKLLIYSASSLYSGVPSRFSGSRSGTDFTLTISSLQPEDFATYYCQQSSYSLITFGQGTKVEIKR
notes: Fab (also as Fab-phage); FLAG tag on light chain C-terminus; also called sb173
As for B2, in test [1], binding was put at a Kd of 0.77 nM. Further, in test [2], the Kd came to 0.516 nM, the koff turned out to be 0.000738 s⁻¹ and the kon amounted to 1.43e+06 M⁻¹ s⁻¹.

B3: anti-αKlotho Fab clone 4807 (Fab, V domains shown)
VH: EVQLVESGGGLVQPGGSLRLSCAASGFNLSSSYMHWVRQAPGKGLEWVASIYPSYGSTSYADSVKGRFTISADTSKNTAYLQMNSLRAEDTAVYYCARGVVPSYYYWFWPYGAIDYWGQGTLVTVSS
VL: DIQMTQSPSSLSASVGDRVTITCRASQSVSSAVAWYQQKPGKAPKLLIYSASSLYSGVPSRFSGSRSGTDFTLTISSLQPEDFATYYCQQSSYSLITFGQGTKVEIKR
notes: Fab (also as Fab-phage); FLAG tag on light chain; also called sb176
In the case of B3, binding in test [1] was characterised by a dissociation constant (Kd) of 6.1 nM. For the same molecule, in test [2], binding was put at a Kd of 3.5 nM, the koff stood at 0.00244 s⁻¹ and the kon worked out at 698000 M⁻¹ s⁻¹.

B4: anti-αKlotho Fab clone 4811 (Fab, V domains shown)
VH: EVQLVESGGGLVQPGGSLRLSCAASGFNLYYSYMHWVRQAPGKGLEWVASIYSSSSYTSYADSVKGRFTISADTSKNTAYLQMNSLRAEDTAVYYCARSPSWWVSYHSALDYWGQGTLVTVSS
VL: DIQMTQSPSSLSASVGDRVTITCRASQSVSSAVAWYQQKPGKAPKLLIYSASSLYSGVPSRFSGSRSGTDFTLTISSLQPEDFATYYCQQGYALFTFGQGTKVEIKR
notes: Fab (also as Fab-phage); FLAG tag on light chain; also called sb180
For B4, the Kd in test [1] came to 2.3 nM; in test [3] it was 1.13 nM; in test [4] it was 1.48 nM; with mouse αKlotho [5], 19.9 nM; in test [6], 1.48 nM; with mouse αKlotho [7], 10.3 nM. Further, the koff in test [3] came to 0.000609 s⁻¹; in test [4] it was 0.000516 s⁻¹; with mouse αKlotho [5], 0.00545 s⁻¹; in test [6] it was 0.000516 s⁻¹; in the test with mouse αKlotho [7], 0.00276 s⁻¹. For the same molecule, the kon was 537000 M⁻¹ s⁻¹ in test [3]; 349000 M⁻¹ s⁻¹ in test [4]; 273000 M⁻¹ s⁻¹ in the test with mouse αKlotho [5]; 349000 M⁻¹ s⁻¹ in test [6]; 268000 M⁻¹ s⁻¹ in the test with mouse αKlotho [7].

For the origin of these results see patent US20190041402A1 (GOVERNING COUNCIL OF THE UNIVERSITY OF TORONTO, published 2019).
